Results reported in patent EP4676958A2 (dated 2026).

Target: T1, active human KLK7 (human, UniProt P49862 30-253)
T1 construct: mature; also called hKLK7; active form of hKLK7
Assay: SPR, antibody captured on Protein A chip, 20 nM hKLK7 (FIG. 11A, 11F)

T1 sequence (P49862 30-253): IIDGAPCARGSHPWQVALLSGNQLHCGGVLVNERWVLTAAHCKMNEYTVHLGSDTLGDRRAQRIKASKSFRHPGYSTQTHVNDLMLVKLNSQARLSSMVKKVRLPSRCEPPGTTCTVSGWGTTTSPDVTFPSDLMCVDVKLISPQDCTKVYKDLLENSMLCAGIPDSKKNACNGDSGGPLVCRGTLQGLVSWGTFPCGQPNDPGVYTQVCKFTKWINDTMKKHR

binding result: binds
B1: KLK7-L1-Ab8 (antibody, V domains shown)
VH: QVQLVQSGAEVKKPGASVKVSCKASGYTFTSEGIHWVRQAPGQGLEWMGSISASSGDTNYAQKLQGRVTMTTDTSTSTAYMELRSLRSDDTAVYYCARSAGYGARHWYFDLWGQGTMVTVSS
VL: DIQMTQSPSSLSASVGDRVTITCRASQSISSYLNWYQQKPGKAPKLLIYGASSLQSGVPSRFSGSGSGTDFTLTISSLQPEDFATYYCDQWYSTPPITFGGGTKVEIK
notes: captured on Protein A; also called KLK7-Ll-Ab8; KLK7- Ll-Ab8
